{"source": "paper PMC3382138", "about": "“On the Structure and Function of the Phytoene Desaturase CRTI from Pantoea ananatis, a Membrane-Peripheral and FAD-Dependent Oxidase/Isomerase” (PLoS ONE, 2012)", "key": {"[1]": {"test_system": "CC(C)=CCC/C(C)=C/CC/C(C)=C/CC/C(C)=C/C=C\\C=C(/C)CC/C=C(\\C)CC/C=C(\\C)CCC=C(C)C", "assay": "purified protein", "conditions": "150 µM FAD, phytoene 0.8-9.2 µM (apparent bulk concentration) in phosphatidyl-choline liposomes, aerobic, phosphate pH 8.0, 100 mM NaCl, 37 °C, 12 min, not saturated"}, "[2]": {"test_system": "Cc1cc2nc3c(=O)[nH]c(=O)nc-3n(C[C@H](O)[C@H](O)[C@H](O)COP(=O)(O)OP(=O)(O)OC[C@H]3O[C@@H](n4cnc5c(N)ncnc54)[C@H](O)[C@@H]3O)c2cc1C", "assay": "purified protein", "conditions": "phytoene 7 µM (7.5 µM in Figure 4 legend) in phosphatidyl-choline liposomes, aerobic, phosphate pH 8.0, 100 mM NaCl, 37 °C, 12 min, varied: cofactor"}}, "data": [{"substance": "CRTI (CRTI-His6) (Pantoea ananatis)", "values": [{"measurement": "Km", "setting": "[1]", "value": "16.7 ± 1.9", "unit": "µM"}, {"measurement": "Km", "setting": "[2]", "value": "50.5 ± 2.9", "unit": "µM"}]}]}
